Sequences and labels used below:
B1: Thioredoxin-like protein slr1139 (Synechocystis sp. (strain PCC 6803 / Kazusa)), P73263 (parent)
chain: MSLLEITDAEFEQETQGQTKPVLVYFWASWCGPCRLMAPAIQAIAKDYGDKLKVLKLEVDPNPAAVAQCKVEGVPALRLFKNNELVMTHEGAIAKPKLLELLKEELDFI
partner: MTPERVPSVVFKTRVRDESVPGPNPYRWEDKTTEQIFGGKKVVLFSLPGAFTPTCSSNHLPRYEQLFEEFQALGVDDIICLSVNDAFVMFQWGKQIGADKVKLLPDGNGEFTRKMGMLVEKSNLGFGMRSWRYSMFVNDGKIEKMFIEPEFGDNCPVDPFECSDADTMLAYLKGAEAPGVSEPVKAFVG
B2: Thioredoxin-like protein slr1139 (Synechocystis sp. (strain PCC 6803 / Kazusa)), P73263 (parent)
chain: B1 chain
partner: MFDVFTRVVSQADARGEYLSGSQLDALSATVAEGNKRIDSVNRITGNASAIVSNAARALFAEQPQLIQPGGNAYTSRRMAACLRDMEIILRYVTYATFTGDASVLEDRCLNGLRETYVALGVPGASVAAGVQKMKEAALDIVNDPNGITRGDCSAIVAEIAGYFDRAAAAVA
B3: Thioredoxin-like protein slr1139 (Synechocystis sp. (strain PCC 6803 / Kazusa)), P73263 (parent)
chain: B1 chain
partner: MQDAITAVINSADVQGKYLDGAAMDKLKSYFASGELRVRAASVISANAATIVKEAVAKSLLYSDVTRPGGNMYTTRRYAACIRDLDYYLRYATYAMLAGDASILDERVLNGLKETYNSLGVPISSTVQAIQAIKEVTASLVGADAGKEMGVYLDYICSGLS

In one assay the parent is B1. The note with it: with prx5_syny3 prx5, P73728.
With MSLLEITDAEFEQETQGQTKPVLVYFWASWCGPSRLMAPAIQAIAKDYGDKLKVLKLEVDPNPAAVAQCKVEGVPALRLFKNNELVMTHEGAIAKPKLLELLKEELDFI, the “effect of a mutation on the interaction” value was “increasing interaction”.

Variants of B2 are the subject of another assay. The note with it: with phcb_syny3 cpcB.
In the case of MSLLEITDAEFEQETQGQTKPVLVYFWASWCGPSRLMAPAIQAIAKDYGDKLKVLKLEVDPNPAAVAQCKVEGVPALRLFKNNELVMTHEGAIAKPKLLELLKEELDFI, the “effect of a mutation on the interaction” value is on record as “increasing interaction”.

The variants in the next assay derive from B3. Particulars: with apcb_syny3 apcB.
Take MSLLEITDAEFEQETQGQTKPVLVYFWASWCGPSRLMAPAIQAIAKDYGDKLKVLKLEVDPNPAAVAQCKVEGVPALRLFKNNELVMTHEGAIAKPKLLELLKEELDFI: the “effect of a mutation on the interaction” value is given as “increasing interaction”.
